Measurements from patent publication US20150344570A1 (published 2015).
Changes are numbered by the printed parent chain. In names and notes the source's numbering stands. Like-named read-outs stand apart in the source and are kept apart here.

T1: FcγRIIb extracellular domain with C-terminal His tag (human, UniProt P31994 43-217)
T1 construct: extracellular domain; also called FcgRIIb; CD32B; not shown: His tag at the C terminus
T1 sequence (looked up): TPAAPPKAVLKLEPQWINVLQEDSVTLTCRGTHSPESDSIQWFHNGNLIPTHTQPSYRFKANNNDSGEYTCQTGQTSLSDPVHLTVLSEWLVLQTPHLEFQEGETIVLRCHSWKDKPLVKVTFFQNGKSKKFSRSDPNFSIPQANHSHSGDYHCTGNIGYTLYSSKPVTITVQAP

T2: FcγRIIa R extracellular domain with C-terminal His tag (human, UniProt P12318 34-217)
T2 construct: extracellular domain; Soluble receptor, R131 allotype; also called FcgRIIa R; FcgRIIaR; not shown: His tag at the C terminus
T2 sequence (looked up): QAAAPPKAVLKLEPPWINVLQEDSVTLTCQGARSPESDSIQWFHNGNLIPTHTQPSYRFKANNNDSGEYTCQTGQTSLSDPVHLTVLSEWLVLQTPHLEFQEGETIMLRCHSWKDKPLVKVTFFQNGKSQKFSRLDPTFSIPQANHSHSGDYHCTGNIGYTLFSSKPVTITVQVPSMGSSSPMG

T3: FcγRIIa H extracellular domain with C-terminal His tag (human, UniProt P12318 34-217)
T3 construct: extracellular domain; Soluble receptor, H131 allotype; also called FcgRIIa H; FcgRIIaH; not shown: His tag at the C terminus
T3 sequence (looked up): T2 sequence (looked up) with R134H

T4: FcgRIIb extracellular domain, C-terminal His tag (human, UniProt P31994 43-217)
T4 construct: extracellular domain; Soluble analyte in Biacore; also called FcγRIIb; not shown: His tag at the C terminus
T4 sequence (looked up): T1 sequence (looked up)

T5: FcgRIIa H type extracellular domain, C-terminal His tag (human, UniProt P12318 34-217)
T5 construct: extracellular domain; Soluble analyte in Biacore; also called FcγRIIa H; FcγRIIa(H); not shown: His tag at the C terminus
T5 sequence (looked up): T2 sequence (looked up) with R134H

T6: FcgRIIa R type extracellular domain, C-terminal His tag (human, UniProt P12318 34-217)
T6 construct: extracellular domain; Soluble analyte in Biacore; also called FcγRIIa R; FcγRIIa(R); not shown: His tag at the C terminus
T6 sequence (looked up): T2 sequence (looked up)

B1: H240-Kn061/H240-Hl071/L73-k0 variant with V240F introduced into H chain H240-Hl071 (antibody, human IgG1, kappa)
heavy 1: QDQLVQSGAEVKKPGASVKVSCKASGFNIKDTYIQWVRQAPGQGLEWMGRIDPLRKQTKYREKFEGRVTITADTSTNTAYMELSSLRSEDTAVYYCVRSGREFDYWGQGTLVTVSSASTKGPSVFPLAPSSKSTSGGTAALGCLVKDYFPEPVTVSWNSGALTSGVHTFPAVLQSSGLYSLSSVVTVPSSSLGTQTYICNVNHKPSNTKVDKKVEPKSCDKTHTCPPCPAPEYYWGPSVFLFPPKPKDTLMISRTPEVTCVVVDVSDEDPEVKFNWYVDGVEVHNAKTKPREEQYNATYRVVSVLTVLHQDWLNGKEYKCKVSNKALPAPIEKTISKAKGQPREPQVCTLPPSRDELTKNQVSLWCLVKGFYPSDIAVEWESNGQPENNYKTTPPVLDSDGSFFLYSKLTVDKSRWQQGNVFSCSVMHEALHNHYTQKSLSLSP
heavy 2: QDQLVQSGAEVKKPGASVKVSCKASGFNIKDTYIQWVRQAPGQGLEWMGRIDPLRKQTKYREKFEGRVTITADTSTNTAYMELSSLRSEDTAVYYCVRSGREFDYWGQGTLVTVSSASTKGPSVFPLAPSSKSTSGGTAALGCLVKDYFPEPVTVSWNSGALTSGVHTFPAVLQSSGLYSLSSVVTVPSSSLGTQTYICNVNHKPSNTKVDKKVEPKSCDKTHTCPPCPAPELLGGPSFFLFPPKPKDTLMISRTPEVTCVVVDVSHEDPEVKFNWYVDGVEVHNAKTKPREEQYNSTYRVVSVLTVLHQDWLNGKEYKCKVSNDALPMPIEETISKAKGQPREPQVYTLPPSRCELTKNQVSLSCAVKGFYPSDIAVEWESNGQPENNYKTTPPVLDSDGSFFLVSKLTVDKSRWQQGNVFSCSVMHEALHNHYTQKSLSLSP
light: DIQMTQSPSSLSASVGDRVTITCRASQDIHKYIAWYQQKPGQAPRLLIQYTSTLQPGVPSRFSGSGSGTDYTFTISSLQPEDIATYYCLQYEQLRTFGGGTKVEIKRTVAAPSVFIFPPSDEQLKSGTASVVCLLNNFYPREAKVQWKVDNALQSGNSQESVTEQDSKDSTYSLSSTLTLSKADYEKHKVYACEVTHQGLSSPVTKSFNRGEC
notes: Point variant of the heterodimerized anti-epiregulin IgG1 template; also called H240-Hl071 V240F
B2: H240-Kn120/H240-Hl068/L73-k0 (antibody, human IgG1, kappa)
heavy 1: B1 heavy 1 with S238M, A326D
heavy 2: B1 heavy 2 with F239V, D269E, M329K
light: B1 light
notes: Heterodimerized (knobs-into-holes) anti-epiregulin IgG1 antibody; also called H240-Kn120/H240-HI068/L73-k0
B3: H240-Kn120/H240-Hl089/L73-k0 (antibody, human IgG1, kappa)
heavy 1: B1 heavy 1 with S238M, A326D
heavy 2: B1 heavy 2 with G235T, F239V, D269E, M329K
light: B1 light
notes: also called H240-Kn120/H240-HI089/L73-k0
B4: H240-Kn120/H240-Hl073/L73-k0 (antibody, human IgG1, kappa)
heavy 1: B1 heavy 1 with S238M, A326D
heavy 2: B1 heavy 2 with G235S, F239V, D269E, M329K
light: B1 light
notes: also called H240-Kn120/H240-HI073/L73-k0
B5: H240-Kn120/H240-Hl086/L73-k0 (antibody, human IgG1, kappa)
heavy 1: B1 heavy 1 with S238M, A326D
heavy 2: B1 heavy 2 with G235I, F239V, D269E, M329K
light: B1 light
notes: also called H240-Kn120/H240-HI086/L73-k0
B6: H240-Kn061/H240-Hl071/L73-k0 variant with Y235N introduced into H chain H240-Kn061 (antibody, human IgG1, kappa)
heavy 1: B1 heavy 1 with Y234N
heavy 2: B1 heavy 2 with F239V
light: B1 light
notes: Point variant of the heterodimerized anti-epiregulin IgG1 template; also called H240-Kn061 Y235N
B7: H240-Kn061/H240-Hl071/L73-k0 variant with Y234E introduced into H chain H240-Kn061 (antibody, human IgG1, kappa)
heavy 1: B1 heavy 1 with Y233E
heavy 2: B1 heavy 2 with F239V
light: B1 light
notes: Point variant of the heterodimerized anti-epiregulin IgG1 template; also called H240-Kn061 Y234E
B8: H240-Kn120/H240-Hl085/L73-k0 (antibody, human IgG1, kappa)
heavy 1: B1 heavy 1 with S238M, A326D
heavy 2: B1 heavy 2 with G235V, F239V, D269E, M329K
light: B1 light
notes: also called H240-Kn120/H240-HI085/L73-k0

Columns and labels:
[1] = target: T1, FcγRIIb extracellular domain with …; assay: SPR (Biacore); KD of H240-Kn061/H240-Hl071/L73-k0 divided by KD of the variant
[2] = target: T7, FcγRIIIa F extracellular domain with C-terminal His tag (human, UniProt P08637 17-208); assay: as above
T7 construct: extracellular domain; Soluble receptor, F158 allotype; also called FcgRIIIa F; FcgRIIIaF; not shown: His tag at the C terminus

[3] = target: T2, FcγRIIa R extracellular domain with …; assay: as above
[4] = target: T3, FcγRIIa H extracellular domain with …; assay: as above
[5] = target: T8, FcγRIIIa V extracellular domain with C-terminal His tag (human, UniProt P08637 17-208); assay: as above
T8 construct: extracellular domain; Soluble receptor, V158 allotype; also called FcgRIIIa V; FcgRIIIaV; not shown: His tag at the C terminus

[6] = target: T4, FcgRIIb extracellular domain, …; assay: SPR (Biacore); KD of H240-Kn120/H240-Hl068/L73-k0 divided by KD of the variant
Method: (§1) H240-Kn179/H240-H1089/L73-k0, H240-Kn180/H240-Hl089/L73-k0, H240-Kn192/H240-Hl204/L73-k0, and H240-Kn193/H240-Hl204/L73-k0 were prepared by combining each of H240-Kn192 and H240-Kn193 as an H chain, L73-k0 as the L chain, and H240-Hl089 and H240-Hl204 as the other H chain according to the method described in Reference Example 1. The variants described above were assessed for their binding to FcγR according to the method described in Reference Example 8.
(§2) Analysis of interaction between objective antibody and the FcγR was carried out using Biacore T100 (GE Healthcare), Biacore T200, Biacore A100, and Biacore 4000. HBS-EP+ (GE Healthcare) was used as the running buffer, and the measurement temperature was set to 25° C. Chips produced by immobilizing the antigen peptide by the amine coupling method to a Series S sensor Chip CM5 (GE Healthcare), chips produced by allowing preliminarily biotinylated antigen peptides to interact with and immobilize onto a Series S Sensor Chip SA (certified) (GE Healthcare), chips produced by immobilizing Protein L (ACTIGEN, BioVision) to Series S Sencor Chip CM5 (GE Healthcare), or chips produced by immobilizing Protein A/G (Thermo Scientific) to Series S Sencor Chip CM5 (GE Healthcare) were used. Antibodies of interest were captured onto these chips, and allowed to interact to each FcγR diluted with running buffer. To regenerate and repeatedly use the chip, the antibodies captured onto the chip were washed off by reacting 10 mM glycine-HCl, pH 1.5.

[7] = target: T9, FcgRIIIa F type extracellular domain, C-terminal His tag (human, UniProt P08637 17-208); assay: as above
T9 construct: extracellular domain; Soluble analyte in Biacore; also called FcγRIIIa F; not shown: His tag at the C terminus
Method: as §1, §2

[8] = target: T10, FcgRIIIa V type extracellular domain, C-terminal His tag (human, UniProt P08637 17-208); assay: as above
T10 construct: extracellular domain; Soluble analyte in Biacore; also called FcγRIIIa V; not shown: His tag at the C terminus
Method: as §1, §2

[9] = target: T5, FcgRIIa H type extracellular domain, …; assay: as above
Method: as §1, §2

[10] = target: T6, FcgRIIa R type extracellular domain, …; assay: as above
Method: as §1, §2

[11] = target: T4, FcgRIIb extracellular domain, …; assay: as above; remark: listed apart in the source
Method: as §2

[12] = target: T9, FcgRIIIa F type extracellular domain, …; assay: as above; remark: listed apart in the source
Method: as §2

[13] = target: T10, FcgRIIIa V type extracellular domain, …; assay: as above; remark: listed apart in the source
Method: as §2

[14] = target: T5, FcgRIIa H type extracellular domain, …; assay: as above; remark: listed apart in the source
Method: as §2

[15] = target: T6, FcgRIIa R type extracellular domain, …; assay: as above; remark: listed apart in the source
Method: as §2

T7 sequence (P08637 17-208): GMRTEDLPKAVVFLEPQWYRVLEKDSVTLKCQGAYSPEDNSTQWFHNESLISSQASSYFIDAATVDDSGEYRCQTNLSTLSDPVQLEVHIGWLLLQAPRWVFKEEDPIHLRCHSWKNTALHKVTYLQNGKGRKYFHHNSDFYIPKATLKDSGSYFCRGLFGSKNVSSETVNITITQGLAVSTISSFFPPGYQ
T9 sequence (P08637 17-208): as above
T8 sequence (P08637 17-208 F176V): as the sequence (P08637 17-208) above, with F160V counted along it
T10 sequence (P08637 17-208 F176V): as the sequence (P08637 17-208) above, with F160V counted along it

| Binder | relative KD [1] | relative KD [2] | relative KD [3] | relative KD [4] | relative KD [5] | relative KD [6] | relative KD [7] | relative KD [8] | relative KD [9] | relative KD [10] | relative KD [11] | relative KD [12] | relative KD [13] | relative KD [14] | relative KD [15] |
| --- | --- | --- | --- | --- | --- | --- | --- | --- | --- | --- | --- | --- | --- | --- | --- |
| B1 | 0.9 | 1.4 | 1.1 | 0.9 | 1 |  |  |  |  |  |  |  |  |  |  |
| B2 |  |  |  |  |  | 1 | 1 | 1 | 1 | 1 | 1 | 1 | 1 | 1 | 1 |
| B3 |  |  |  |  |  | 0.8 | 0.2 | 0.1 | 1 | 1.4 | 0.8 | 0.2 | 0.1 | 1 | 1.4 |
| B4 |  |  |  |  |  |  |  |  |  |  | 0.7 | 0.3 | 0.2 | 2 | 1.3 |
| B5 |  |  |  |  |  |  |  |  |  |  | 0.3 | 0.1 | 0 | 0.8 | 0.9 |
| B6 | 0.7 | 1.3 | 1 | 0.7 | 2 |  |  |  |  |  |  |  |  |  |  |
| B7 | 0.5 | 1.9 | 1.4 | 0.7 | 1.6 |  |  |  |  |  |  |  |  |  |  |
| B8 |  |  |  |  |  |  |  |  |  |  | 0.4 | 0.1 | 0.1 | 0.9 | 1.1 |
